Here are results for six molecules from article PMC8836349, “Characterization of adenine phosphoribosyltransferase (APRT) activity in Trypanosoma brucei brucei: Only one of the two isoforms is kinetically active” (PLoS Neglected Tropical Diseases, 2022).

B1: APRT2 (Trypanosoma brucei brucei TREU927) (protein)
chain: MSQYDAILTERHPHHFTLADTHPLAKELHANIFGESDLTHANCAHVYDISSLTEKPALFRKVIEFLKCRYETMGDTGPTHIIGVESRGYIIGAPLAVALGIPFVTARVTKRFPSSFVPEGDDLKYLPMSRSIRNDSIPPRARVLIVDDFIGTGSTMLAALRLADIVAAQVVEVLTVCDVASLGGIKIIRESDDEMFKETPIFTLIHFKLSPREAEEQLEFVNSYITRSRL
notes: full-length ORF, codon optimized, expressed in Pichia pastoris; N- or C-terminal His6/mCherry tag removed with TEV protease; weak dimer
B2: APRT2 (Trypanosoma brucei brucei putative adenine phosphoribosyltransferase 2, Tb927.7.1790), expressed in P. pastoris, vector not told (natural protein, UniProt Q57V31 1-230, looked up)
chain: B1 chain
notes: APRT2 of Trypanosoma brucei brucei, Tb927.7.1790, UniProt Q57V31; the ORF, codon optimised for P. pastoris, cloned into a pPICZ vector; tags were removed with TEV protease; also called TbbAPRT2; source: Pichia pastoris strain smPP, purified (Ni-NTA, TEV cleavage, second Ni-NTA)
B3: APRT2-Ctag (Trypanosoma brucei brucei putative adenine phosphoribosyltransferase 2, Tb927.7.1790, expressed from pPICZ-Ctag) (natural protein, UniProt Q57V31 1-230, looked up)
chain: B1 chain
notes: APRT2 of Trypanosoma brucei brucei, Tb927.7.1790, UniProt Q57V31; the ORF, codon optimised for P. pastoris, cloned into pPICZ-Ctag; Tags removed with TEV protease; measured native-MS mass 26,637 Da (theoretical 26,647 Da), so residues of the TEV site are likely left at the C-terminus; also called TbbAPRT2; source: Pichia pastoris strain smPP, purified (Ni-NTA, TEV cleavage, second Ni-NTA); not …
B4: APRT2-Ntag (Trypanosoma brucei brucei putative adenine phosphoribosyltransferase 2, Tb927.7.1790, expressed from pPICZ-Ntag) (natural protein, UniProt Q57V31 1-230, looked up)
chain: B1 chain
notes: APRT2 of Trypanosoma brucei brucei, Tb927.7.1790, UniProt Q57V31; the ORF, codon optimised for P. pastoris, cloned into pPICZ-Ntag; Tags removed with TEV protease; measured native-MS mass 25,860 Da (theoretical 25,853 Da); also called TbbAPRT2; source: Pichia pastoris strain smPP, purified (Ni-NTA, TEV cleavage, second Ni-NTA); not shown: His6, N-terminal, cleaved; mCherry, N-terminal, cleaved
B5: Trypanosoma brucei brucei adenine phosphoribosyltransferase 1 (APRT1, Tb927.7.1780) (enzyme, UniProt Q57V32 1-235, looked up)
chain: MSLVEVLPNYFTLSKDSPLRKKFEKVYKWYSPAFSPHDVPRFAEVGNITENPEVMRGIRDFFVDRYKNLQQPITHILGFDSRGFLLGPMIAVELNVPFVLIRKANKIAGVIIKSEPYTKEYAAESEECMTVRFGSFDKNSRVVLIDDVIATGGTMLAGVQLVDACGATLVEVAGILGLTFLKGTQPAHTFAGGRYSNVPFVTLVDETVLSDENCGDPLHHKGSRIISCAEAKKLI
notes: APRT1 of Trypanosoma brucei brucei, Tb927.7.1780, UniProt Q57V32; the ORF, codon optimised for P. pastoris, cloned into a pPICZ vector; tags were removed with TEV protease (tag-less APRT1); also called TbbAPRT1; source: Pichia pastoris strain smPP, purified (Ni-NTA, TEV cleavage, second Ni-NTA)

The target in one series is T1, APRT1 (TbbAPRT1) (Trypanosoma brucei, UniProt Q57V32).
T1 construct: gene Tb07.43M14.180; full-length ORF, codon optimized, expressed in Pichia pastoris; His6/mCherry tag removed with TEV protease; homodimer
T1 sequence (Q57V32 1-235): B5 chain
Kind of series: coupled myokinase/pyruvate kinase/lactate dehydrogenase assay, NADH at […] nm. The class given is biochemical. To be noted: read-out: Apparent inhibition parameters^b.

Substrate in series [1]: Nc1ncnc2nc[nH]c12
Kind of series: purified protein. The class given is biochemical, Trypanosoma brucei. To be noted: 100 mM HEPES pH 7.8, 25 mM MgCl2, room temperature.

Series [2] addresses B5. Kind of series: cell-based or functional assay.
Series [3] concerns the molecule itself. Kind of series: SEC; Superdex 200 Increase 10/300 GL; 200 uL of APRT1 at 13.8 mg mL^-1 or APRT2 at 10.8 mg mL^-1; 50 mM HEPES pH 7.8, 300 mM NaCl, 50 mM L-arginine, 50 mM L-glutamate; column calibrated with standards of 1,350 to 670,000 Da. On the technique in general: In gel filtration, larger molecules generally elute earlier.
Series [4] deals with the molecule itself. Kind of series: cross-linking; dimethyl suberimidate (DMS) 8.7 mM, 0.2 M triethanolamine pH 8.5, purified APRT at 17.8, 35, 69 or 140 ug mL^-1, RT, 5-8 hours; 12% SDS-PAGE, Coomassie Blue.
Substrate in series [5]: O=P(O)(O)OC[C@H]1O[C@H](OP(=O)(O)OP(=O)(O)O)[C@H](O)[C@@H]1O
Kind of series: purified protein. As to conditions: varied PRPP (10-250 μM) at fixed adenine 1-20 μM, 100 mM HEPES pH 7.8, 25 mM MgCl2, room temperature. The class given is biochemical, Trypanosoma brucei.

Setting [6] is: kinetic dissociation constant from free enzyme, varied adenine (1.5-50 μM) at fixed PRPP 25-150 μM.

A word on the Km: it is the concentration of substrate that gives half-maximal velocity. A word on the kcat: it is the maximal rate divided by the concentration of active sites. A word on the kcat/Km: it is the turnover number divided by the Michaelis constant. Usually stoichiometry N stands for the number of molecules, sites or subunits per partner or assembly.

Consider `Nc1ncnc2cc[nH]c12` [9-deazaadenine], for which, at APRT1 (TbbAPRT1), the Ki was found to be 156 ± 21 µM.

On to B1, for which, in the series “purified protein [1]” (adenine 50-500 μM, 1 mM PRPP), the Km stood at 253 ± 4 µM, the kcat came out at 0.003 ± 0.0002 s⁻¹ and the kcat/Km came to 12 ± 0.8 M⁻¹ s⁻¹.

Take B2: the “fold decrease in AMP formation (APRT activity) of an equimolar mixture pre-incubated 4 hours on ice (100 nM APRT1: 100 nM APRT2) against 200 nM APRT1 alone and 100 nM APRT1 alone” value in series [2] is 2 fold. In series [3], the “stoichiometry N” value was found to be 2.

Turning to B3, the “stoichiometry N” value in series [4] was 2.

Turning to B4, the “stoichiometry N” value in series [4] was 2.

Consider B5, for which the “stoichiometry N” value in series [4] was 2. Further, in the series “purified protein [5]”, the Km was determined as 68 ± 11 µM, the kcat amounted to 0.61 ± 0.04 s⁻¹ and the specificity constant (kcat/Km) is 9000 ± 1600 M⁻¹ s⁻¹. For the same molecule, in “purified protein [1]” (setting [6]), the Km is 2.2 ± 0.7 µM and the kcat amounted to 0.62 ± 0.02 s⁻¹.
